Holding throughout (assay): cell-based or functional assay
Experiment [1] has as its target OPRD1-PK fusion protein. Details: EC50, arrestin-EA recruitment to OPRD1-PK (EFC) (M (unit not given)): unit not given beside the values.
The target in a further experiment is PROKR2, not fused (UniProt Q8NFJ6). More on the design: EC50, arrestin-EA recruitment to OPRM1-PK (EFC), cells headed 'OPRM1 + PRC' (M (unit not given)): unit not given beside the values.
For experiment [2], the target named is OPRM1-PK (opiod receptor mu-1 fused to PK) (E. coli) (UniProt P35372). More on the design: EC50, arrestin-EA recruitment to OPRM1-PK (EFC) (M (unit not given)): unit not given beside the values.
Experiment [3] concerns the target OPRD1 (opiod receptor delta 1), not fused (UniProt P41143).
Experiment [4] has as its target CRTH2-PK2 (G Protein-coupled receptor 44 fused to PK2) (E. coli) (UniProt Q9Y5Y4). More on the design: EC50 of prostaglandin for arrestin-EA recruitment, EFC (M (unit not given)): unit not given beside the values.
The target in experiment [5] is SSTR1-PK2 (somatostatin receptor 1 fused to PK2) (E. coli) (UniProt P30872).
The target in experiment [6] is CHRM2-PK2 (cholinergic receptor, muscarinic 2, fused to PK2) (E. coli) (UniProt P08172).
The target is the same in experiment [7]. More on the design: EC50 of oxotremorine for arrestin-EA recruitment, EFC (M (unit not given)): unit not given beside the values.
Experiment [8] has as its target OPRM1-PK (opiod receptor mu-1 fused to PK) (E. coli) (UniProt P35372). Details: EC50, arrestin-EA recruitment to OPRM1-PK (EFC), cells headed 'OPRM1 + PRC' (M (unit not given)): unit not given beside the values.
Experiment [9] has as its target CHRM3 with the EGS linker and PK (UniProt P20309).
Experiment [10] addresses HRH3 with the EGS linker and PK (UniProt Q9Y5N1).
The target in experiment [11] is CCR4-PK1 (chemokine receptor 4 fused to PK1) (E. coli) (UniProt P51679).
The target in experiment [12] is MC3R-PK1 (melanocortin 3 receptor fused to PK1) (E. coli) (UniProt P41968).
Experiment [13] has as its target SSTR1-PK2 (somatostatin receptor 1 fused to PK2) (E. coli) (UniProt P30872). The source holds these as a separate data set.
For experiment [14], the target named is SSTR4 with the EGS linker and PK (UniProt P31391).
Chain of SSTR4 with the EGS linker and PK (P31391 other isoform, or with tags, fused parts or gaps): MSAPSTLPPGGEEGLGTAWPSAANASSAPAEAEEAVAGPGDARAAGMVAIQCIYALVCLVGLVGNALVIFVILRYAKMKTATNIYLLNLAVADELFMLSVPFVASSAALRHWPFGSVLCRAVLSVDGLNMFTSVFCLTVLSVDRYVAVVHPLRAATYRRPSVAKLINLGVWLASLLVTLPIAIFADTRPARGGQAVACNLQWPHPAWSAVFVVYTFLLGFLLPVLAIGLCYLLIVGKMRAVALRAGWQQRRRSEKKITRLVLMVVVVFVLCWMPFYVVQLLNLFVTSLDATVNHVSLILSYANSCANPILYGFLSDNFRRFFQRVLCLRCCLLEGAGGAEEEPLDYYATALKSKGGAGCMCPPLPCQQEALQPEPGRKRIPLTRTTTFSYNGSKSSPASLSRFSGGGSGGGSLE
Experiment [15] concerns the target CCR4-PK2 (chemokine receptor 4 fused to PK2) (E. coli) (UniProt P51679).
The target in experiment [16] is MC3R-PK2 (melanocortin 3 receptor fused to PK2) (E. coli) (UniProt P41968).
The target in experiment [17] is CHRM2-PK1 (cholinergic receptor, muscarinic 2, fused to PK1) (E. coli) (UniProt P08172).
For experiment [18], the target named is CHRM2-PK2 (cholinergic receptor, muscarinic 2, fused to PK2) (E. coli) (UniProt P08172). This is another data set of the same source.
For experiment [19], the target named is SSTR4-PK without the EGS linker (UniProt P31391).
Chain of SSTR4-PK without the EGS linker (P31391 other isoform, or with tags, fused parts or gaps): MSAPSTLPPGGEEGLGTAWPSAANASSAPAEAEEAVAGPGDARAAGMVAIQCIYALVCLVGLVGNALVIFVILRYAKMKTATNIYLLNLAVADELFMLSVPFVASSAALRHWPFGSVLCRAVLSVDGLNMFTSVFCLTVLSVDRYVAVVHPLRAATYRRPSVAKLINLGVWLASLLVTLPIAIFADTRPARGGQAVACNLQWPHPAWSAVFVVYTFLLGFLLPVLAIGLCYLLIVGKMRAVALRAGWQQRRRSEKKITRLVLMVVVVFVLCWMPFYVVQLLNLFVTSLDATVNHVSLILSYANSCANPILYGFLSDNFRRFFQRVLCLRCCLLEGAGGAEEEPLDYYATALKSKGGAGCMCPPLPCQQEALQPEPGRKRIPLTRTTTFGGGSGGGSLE
Experiment [20] has as its target OPRM1-PK (opiod receptor mu-1 fused to PK) (E. coli) (UniProt P35372).
Experiment [21] addresses CRHR2-PK2 (corticotropin releasing hormone receptor 2 fused to PK2) (E. coli) (UniProt Q13324).
Experiment [22] deals with OPRM1-PK2 (opiod receptor mu-1 fused to PK2) (E. coli) (UniProt P35372).
Experiment [23] addresses OPRD1-PK fusion protein.
For experiment [24], the target named is CRHR2-PK1 (corticotropin releasing hormone receptor 2 fused to PK1) (E. coli) (UniProt Q13324).
The target in experiment [25] is CRTH2-PK2 (G Protein-coupled receptor 44 fused to PK2) (E. coli) (UniProt Q9Y5Y4).
In experiment [26] the target is CRTH2-PK1 (G Protein-coupled receptor 44 fused to PK1) (E. coli) (UniProt Q9Y5Y4).

The results in this text go back to US20100120063A1, “GPCR Arrestin Assays” (DISCOVERX CORPORATION, priority 2008, published 2010).

Like-named read-outs stand apart in the source and are kept apart here.

Chain of HRH3 with the EGS linker and PK (Q9Y5N1 other isoform, or with tags, fused parts or gaps): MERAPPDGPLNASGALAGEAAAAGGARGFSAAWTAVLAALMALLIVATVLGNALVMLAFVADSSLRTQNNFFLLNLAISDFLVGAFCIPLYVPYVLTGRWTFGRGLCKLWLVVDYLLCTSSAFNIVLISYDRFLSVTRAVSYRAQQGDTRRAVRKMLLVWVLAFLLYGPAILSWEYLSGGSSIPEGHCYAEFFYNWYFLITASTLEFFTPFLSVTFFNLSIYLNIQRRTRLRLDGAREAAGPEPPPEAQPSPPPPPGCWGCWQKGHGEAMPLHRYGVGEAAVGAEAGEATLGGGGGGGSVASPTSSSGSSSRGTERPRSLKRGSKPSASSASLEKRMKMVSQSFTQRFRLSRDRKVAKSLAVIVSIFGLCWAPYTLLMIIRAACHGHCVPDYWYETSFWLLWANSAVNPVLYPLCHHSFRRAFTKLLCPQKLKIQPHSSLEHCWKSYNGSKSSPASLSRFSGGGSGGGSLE
Chain of PROKR2, not fused (Q8NFJ6 whole entry, the tested form may be a part): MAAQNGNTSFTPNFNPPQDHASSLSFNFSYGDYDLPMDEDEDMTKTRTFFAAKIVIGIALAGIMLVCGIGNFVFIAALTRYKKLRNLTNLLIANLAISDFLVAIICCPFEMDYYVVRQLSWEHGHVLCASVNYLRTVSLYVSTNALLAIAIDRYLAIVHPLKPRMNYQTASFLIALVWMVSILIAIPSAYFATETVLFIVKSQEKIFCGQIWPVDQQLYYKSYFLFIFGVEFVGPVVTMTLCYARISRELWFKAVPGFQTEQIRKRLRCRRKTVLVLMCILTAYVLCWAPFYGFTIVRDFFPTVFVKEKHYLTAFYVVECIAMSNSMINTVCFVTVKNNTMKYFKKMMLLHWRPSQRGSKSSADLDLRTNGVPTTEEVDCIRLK

In the experiment with OPRD1-PK fusion protein [1], “DAMAGO, [D-Ala2,N-Me-Phe4,Gly5-ol]-enkephalin (peptide)” displayed an EC50, arrestin-EA recruitment to OPRD1-PK (EFC) (M (unit not given)) of 3.64e-05 and an LOGEC50, arrestin-EA recruitment to OPRD1-PK (EFC) (log M (unit not given)) of -4.44.

Consider “EG-VEGF (from UniProt P58294 20-105) (ligand)”, for which, in the experiment with PROKR2, not fused, the EC50, arrestin-EA recruitment to OPRM1-PK (EFC), cells headed 'OPRM1 + PRC' (M (unit not given)) worked out at 3.21e-08 and the LOGEC50, arrestin-EA recruitment to OPRM1-PK (EFC), cells headed 'OPRM1 + PRC' (log M (unit not given)) is -7.49.

The substance DADLE (peptide) displayed an LOGEC50, arrestin-EA recruitment to OPRM1-PK (EFC) (log M (unit not given)) in experiment [2] of -6.95.

In [3], deltorphin (peptide) registered an EC50, arrestin-EA recruitment to co-expressed OPRM1-PK (EFC, transactivation) of 8.38 nM and an LOGEC50, arrestin-EA recruitment to co-expressed OPRM1-PK (EFC, transactivation) (log M (unit not given)) of -8.08. In [2], the EC50, arrestin-EA recruitment to OPRM1-PK (EFC) (M (unit not given)) was 0.0007 and the LOGEC50, arrestin-EA recruitment to OPRM1-PK (EFC) (log M (unit not given)) was -3.12.

For the substance “arrestin-EA fusion protein (beta arrestin fused at its C terminus to the EA fragment of β-galactosidase) (from UniProt P49407 1-418; P00722 48-1024) (other; in M (unit assumed))”, in experiment [4], the EC50 of prostaglandin for arrestin-EA recruitment, EFC (M (unit not given)) stood at 1.74e-07.

Consider DADLE (peptide; in M (unit assumed)), for which the EC50, arrestin-EA recruitment to OPRM1-PK (EFC) (M (unit not given)) in experiment [2] came out at 1.11e-07.

Turning to “arrestin-EA fusion protein (beta arrestin fused at its C terminus to the EA fragment of β-galactosidase) (from UniProt P49407 1-418; P00722 48-1024)”, the BOTTOM of the agonist dose-response fit, EFC chemiluminescence in experiment [5] was found to be 4790; in [4], 29200; in experiment [7] it was 336; in experiment [9], 546; in [10], 273; in experiment [13], 4800. In [14], the BOTTOM of the agonist dose-response fit, EFC chemiluminescence is 1380. In experiment [5], this substance gave a Log EC50 of the agonist (not named) for arrestin-EA recruitment, EFC (log M (unit not given)) of -8.07. The substance further came in with an EC50 of oxotremorine for arrestin-EA recruitment, EFC in experiment [6] of 6290 nM. Further, the LOGEC50 of prostaglandin for arrestin-EA recruitment, EFC (log M (unit not given)) in [4] was -6.76. Further, the TOP of the agonist dose-response fit, EFC chemiluminescence in experiment [4] turned out to be 76000; in [7], 2040; in [9], 1550; in experiment [10], 935; in experiment [13], 10500; in experiment [14], 3420. In [7], this substance showed an EC50 of oxotremorine for arrestin-EA recruitment, EFC (M (unit not given)) of 6.29e-05. Moreover, the LOGEC50 of oxotremorine for arrestin-EA recruitment, EFC (log M (unit not given)) in experiment [7] was -5.2. Further, in [8], the BOTTOM of the EG-VEGF dose-response fit, EFC chemiluminescence, cells headed 'OPRM1 + PRC' stood at 25.8. In addition, the TOP of the EG-VEGF dose-response fit, EFC chemiluminescence, cells headed 'OPRM1 + PRC' in experiment [8] amounted to 57.3. The EC50 of the agonist (not named) for arrestin-EA recruitment, EFC is 82.2 nM in experiment [9], 55.2 nM in experiment [10], 8.15 nM in [13] and 0.732 nM in experiment [14]. In addition, the LOGEC50 of the agonist (not named) for arrestin-EA recruitment, EFC (log M (unit not given)) in experiment [9] was -7.08; in [10], -7.26; in [13], -8.09; in experiment [14], -9.14. Moreover, the S:B, EFC chemiluminescence in [11] was 19; in experiment [12], 1; in experiment [15], 3; in [16] it was 3.2; in experiment [17], 1.6; in [18], 6.1. The S:B, EFC chemiluminescence in experiment [20] was 26; in experiment [21], 17; in [22], 8; in [24] it was 13; in experiment [25], 2.6; in experiment [26], 1. This substance showed a response in the EFC arrestin assay, CHO cells in [19] of 1.5 fold. The same substance showed a BOTTOM of the OPRM1-agonist dose-response fit, EFC chemiluminescence, U2OS cells with OPRM1-PK in [20] of 1010. Further, the S:B with deltorphin, EFC chemiluminescence, U2OS cells with OPRM1-PK and OPRD1 in experiment [20] was 7.4. Moreover, the TOP of the OPRM1-agonist dose-response fit, EFC chemiluminescence, U2OS cells with OPRM1-PK in experiment [20] is 10900. In the experiment with OPRD1-PK fusion protein [23], the BOTTOM of the OPRM1-agonist dose-response fit, EFC chemiluminescence, CHO cells with OPRD1-PK and OPRM1 worked out at 20.3. This substance yielded a S:B, EFC chemiluminescence, CHO cells with OPRD1-PK and OPRM1 in the experiment with OPRD1-PK fusion protein [23] of 31.9. In addition, the TOP of the OPRM1-agonist dose-response fit, EFC chemiluminescence, CHO cells with OPRD1-PK and OPRM1 with OPRD1-PK fusion protein [23] came to 201. For the same substance, in [2], the BOTTOM of the DADLE dose-response fit, EFC chemiluminescence, U2OS cells with OPRM1-PK was determined as 626. The S:B with DADLE, EFC chemiluminescence, U2OS cells with OPRM1-PK in experiment [2] is 32.7. The substance further registered a S:B with deltorphin, EFC chemiluminescence, U2OS cells with OPRM1-PK only in experiment [2] of 2.5. Also, the TOP of the DADLE dose-response fit, EFC chemiluminescence, U2OS cells with OPRM1-PK in experiment [2] came out at 17100. Besides, the BOTTOM of the OPRM1-agonist dose-response fit, EFC chemiluminescence, CHO cells with OPRD1-PK with OPRD1-PK fusion protein [1] was 520. This substance displayed a TOP of the OPRM1-agonist dose-response fit, EFC chemiluminescence, CHO cells with OPRD1-PK with OPRD1-PK fusion protein [1] of 2810.
